The values that follow come from publication PMC11733250, “Interplay of p23 with FKBP51 and their chaperone complex in regulating tau aggregation” (Nature Communications, 2025).

B2: FKBP51 (natural protein, UniProt Q13451 1-457, looked up)
chain: MTTDEGAKNNEESPTATVAEQGEDITSKKDRGVLKIVKRVGNGEETPMIGDKVYVHYKGKLSNGKKFDSSHDRNEPFVFSLGKGQVIKAWDIGVATMKKGEICHLLCKPEYAYGSAGSLPKIPSNATLFFEIELLDFKGEDLFEDGGIIRRTKRKGEGYSNPNEGATVEIHLEGRCGGRMFDCRDVAFTVGEGEDHDIPIGIDKALEKMQREEQCILYLGPRYGFGEAGKPKFGIEPNAELIYEVTLKSFEKAKESWEMDTKEKLEQAAIVKEKGTVYFKGGKYMQAVIQYGKIVSWLEMEYGLSEKESKASESFLLAAFLNLAMCYLKLREYTKAVECCDKALGLDSANEKGLYRRGEAQLLMNEFESAKGDFEKVLEVNPQNKAARLQISMCQKKAKEHNERDRRIYANMFKKFAEQDAKEEANKAMGKKTSEGVTNEKGTDSQAMEEEKPEGHV
notes: FKBP51, 51 kDa, with the FK1, FK2 and TPR domains; all three domains and residues 426-457 are spoken of, which fits the whole 457-residue protein; Used unlabeled or with 13C-methyl (Leu, Val) labels; also called free FKBP51; LV-labeled FKBP51; source: grown in LB or M9 medium, IPTG-induced; purified (His-trap, HRV 3C cut of the His-tag, size exclusion chromatography)

What all share (conditions): both partners purified
The target of experiment [1] is T1, 441-residue human 2N4R tau (human, UniProt P10636-8 1-441).
T1 construct: tau, human, 2N4R isoform, printed length 441 residues; Used unlabeled or 15N-labeled; source: grown in LB or M9 medium, IPTG-induced; purified (boiling, ammonium sulfate, Mono S ion exchange, reverse phase HPLC), lyophilized
T1 sequence (P10636 other isoform, or with tags, fused parts or gaps): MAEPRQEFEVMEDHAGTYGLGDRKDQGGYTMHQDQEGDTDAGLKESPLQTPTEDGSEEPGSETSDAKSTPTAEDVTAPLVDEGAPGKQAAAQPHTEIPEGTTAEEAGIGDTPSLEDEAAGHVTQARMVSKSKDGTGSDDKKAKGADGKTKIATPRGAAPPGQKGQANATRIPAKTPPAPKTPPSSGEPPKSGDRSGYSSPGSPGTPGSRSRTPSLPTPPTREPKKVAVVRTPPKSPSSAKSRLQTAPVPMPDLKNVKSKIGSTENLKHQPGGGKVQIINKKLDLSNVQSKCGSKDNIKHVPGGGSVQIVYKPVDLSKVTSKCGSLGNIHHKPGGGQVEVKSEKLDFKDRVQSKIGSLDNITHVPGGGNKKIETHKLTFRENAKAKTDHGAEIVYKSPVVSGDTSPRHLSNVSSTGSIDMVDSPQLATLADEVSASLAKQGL
Nature of the experiment: NMR titration; 1H-15N HSQC of 15N-labeled tau (20 or 30 µM); unlabeled p23 or p23 (1-119) added up to ten-fold molar excess; 50 mM NaP, 10 mM NaCl, 1 mM DTT, pH 6.8, 278 K.

Experiment [2] deals with T1, 441-residue human 2N4R tau. As to the kind of experiment: cross-linking; p23:FKBP51:tau 1:1:1 (25 µM each), 1 mM DSS, 30 min at 25 °C; SDS-PAGE band above 220 kDa cut out, trypsin digest, mass spectrometry (pLink).
The target of the experiment “FKBP51” is B2. Nature of the experiment: NMR titration; 1H-15N TROSY HSQC of deuterated 15N-labeled p23 (WT 40 µM, 1-119 25 µM, R88A R93A 40 µM); unlabeled FKBP51 added at equimolar to three-fold or five-fold molar excess; 25 mM HEPES, 10 mM KCl, 5 mM MgCl2, 1 mM DTT, pH 7.2, 303 K.

B1: p23 wild-type (human co-chaperone p23, 160 amino acids) (natural protein, UniProt Q15185 1-160, looked up)
chain: MQPASAKWYDRRDYVFIEFCVEDSKDVNVNFEKSKLTFSCLGGSDNFKHLNEIDLFHCIDPNDSKHKRTDRSILCCLRKGESGQSWPRLTKERAKLNWLSVDFNNWKDWEDDSDEDMSNFDRFSEMMNNMGGDEDVDLPEVDGADDDSQDSDDEKMPDLE
notes: p23, human, 160 amino acids: folded domain (residues 1-110) and disordered C-terminal tail (residues 111-160); Used unlabeled, 15N-labeled or deuterated/15N-labeled; also called p23 WT; full-length p23; source: grown in LB or M9 medium, IPTG-induced; purified (His-trap, thrombin cut of the His-tag, size exclusion chromatography)
As to B1, in experiment [1], the binding result is reported as “binds”.
As to B2, the binding result in experiment [2] was “binds”.

B3: truncated p23 (1-119) (domain or fragment, human, UniProt Q15185 1-119, looked up)
chain: MQPASAKWYDRRDYVFIEFCVEDSKDVNVNFEKSKLTFSCLGGSDNFKHLNEIDLFHCIDPNDSKHKRTDRSILCCLRKGESGQSWPRLTKERAKLNWLSVDFNNWKDWEDDSDEDMSN
notes: p23, human, residues 1-119; the terminal 41 residues are deleted; Made by site-directed mutagenesis; also called truncated (1–119) mutant p23; C-terminal deletion mutant of p23; source: grown in LB or M9 medium, IPTG-induced; purified (His-trap, thrombin cut of the His-tag, size exclusion chromatography)
On to B3, for which the binding result in the experiment with FKBP51 is given as “binds”.
